Molecular target: CD55 on healthy donor erythrocytes (human) (UniProt P08174)
Experiment: flow cytometry on healthy donor erythrocytes, mAb at 10 µg/ml, positive control

Chain of UniProt P08174 (P08174 35-353): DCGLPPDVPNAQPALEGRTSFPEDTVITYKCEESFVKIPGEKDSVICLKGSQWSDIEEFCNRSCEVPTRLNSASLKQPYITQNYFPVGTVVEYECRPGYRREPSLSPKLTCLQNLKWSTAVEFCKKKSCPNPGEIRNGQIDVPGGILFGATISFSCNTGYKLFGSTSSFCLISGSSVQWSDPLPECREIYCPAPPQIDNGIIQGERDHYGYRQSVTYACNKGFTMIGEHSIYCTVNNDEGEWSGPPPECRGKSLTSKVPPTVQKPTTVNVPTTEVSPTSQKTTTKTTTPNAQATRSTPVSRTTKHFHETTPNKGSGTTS

Gm (geometric mean fluorescence): 202
Substance: 791T/36 (anti-CD55 mAb) (antibody)
